Experiment [1] addresses ribosylated histone H1 (adsorbed to microwells, ribosylated with PARP1 and NAD+). Kind of experiment: microwell plate binding assay (absorbance at 450 nm). To be noted: read off a plot.
For experiment [2], the target named is mock-ribosylated histone H1 (adsorbed to microwells, no NAD+). The description is as above. The settings on record: 0 μM NAD+, read off a plot.
Experiment [3] has as its target T1, ribosylated PARP1 (adsorbed to microwells, ribosylated with PARP1 and NAD+) (human, UniProt P09874 1-1014, poly (ADP-ribosyl)ated by PARP1 in the presence of 1–50 μM NAD+; sites not stated).
T1 construct: PARP1, poly (ADP-ribose) polymerase 1; 'recombinant, human, full length' is printed for the 5 nM PARP1 of the reaction; Species and form are printed for the PARP1 used as enzyme; I took the adsorbed PARP1 to be the same preparation; also called PARP1 +NAD+; autoribosylated PARP1; source: recombinant
Kind of experiment: ELISA; PARP1, histone H1 or BSA adsorbed to microwells (0.1 mg/ml in PBS), mock-ribosylated (no NAD+) or ribosylated with 5 nM PARP1 and 1–50 μM NAD+; 25 nM His-XRCC1 in 20 mM Tris pH7.5, 130 nM NaCl, 30 min on ice; detected with anti-His Mab and HRP secondary, A450. To be noted: both partners purified. A general note: An ELISA detects its analyte on a solid surface through an enzyme-linked reagent.

T1 sequence (P09874 whole entry): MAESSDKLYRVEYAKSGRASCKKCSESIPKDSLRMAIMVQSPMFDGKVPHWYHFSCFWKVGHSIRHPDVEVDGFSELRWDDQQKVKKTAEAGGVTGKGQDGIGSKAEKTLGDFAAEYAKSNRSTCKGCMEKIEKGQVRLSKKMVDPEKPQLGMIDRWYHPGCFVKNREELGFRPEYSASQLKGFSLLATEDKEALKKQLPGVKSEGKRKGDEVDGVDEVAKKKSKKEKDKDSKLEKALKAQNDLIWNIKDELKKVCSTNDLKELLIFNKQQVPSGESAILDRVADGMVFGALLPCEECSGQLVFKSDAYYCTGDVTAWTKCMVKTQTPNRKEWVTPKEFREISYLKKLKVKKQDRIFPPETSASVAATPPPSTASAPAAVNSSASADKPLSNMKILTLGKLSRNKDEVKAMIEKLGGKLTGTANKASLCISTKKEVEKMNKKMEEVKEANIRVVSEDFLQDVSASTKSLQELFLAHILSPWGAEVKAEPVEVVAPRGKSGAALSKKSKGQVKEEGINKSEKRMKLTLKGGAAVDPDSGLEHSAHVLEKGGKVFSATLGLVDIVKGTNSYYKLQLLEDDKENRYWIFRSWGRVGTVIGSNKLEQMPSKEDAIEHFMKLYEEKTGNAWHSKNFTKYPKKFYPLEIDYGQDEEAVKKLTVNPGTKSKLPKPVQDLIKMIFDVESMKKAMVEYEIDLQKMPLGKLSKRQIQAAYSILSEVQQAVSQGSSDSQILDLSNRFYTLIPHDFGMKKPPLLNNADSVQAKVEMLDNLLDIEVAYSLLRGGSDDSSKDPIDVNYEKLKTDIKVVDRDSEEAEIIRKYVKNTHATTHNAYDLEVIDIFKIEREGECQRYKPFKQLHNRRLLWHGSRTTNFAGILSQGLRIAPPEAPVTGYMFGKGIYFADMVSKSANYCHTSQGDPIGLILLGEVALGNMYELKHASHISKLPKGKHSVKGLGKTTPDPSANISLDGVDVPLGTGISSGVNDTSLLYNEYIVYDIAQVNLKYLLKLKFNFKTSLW

For “His-XRCC1^161–406 (from UniProt P18887) R335A; K369A”, the response in experiment [1] (adsorbed histone H1 ribosylated with 1 μM NAD+, parent: est. 1.7) worked out at 0.12 Abs 450nm; in experiment [1] (adsorbed histone H1 ribosylated with 10 μM NAD+, parent: est. 2.1), 0.78 Abs 450nm; in experiment [1] (adsorbed histone H1 ribosylated with 50 μM NAD+, parent: est. 2.2), 1.2 Abs 450nm; in experiment [1] (left panel, calf thymus histone ribosylated with 0.5 μM NAD+, no competitor, parent: est. 0.82), 0.11 Abs 450nm; in experiment [2] (adsorbed histone H1 mock-ribosylated, parent: est. 0.11) it was 0.1 Abs 450nm; in experiment [2] (left panel, calf thymus histone mock-ribosylated, no competitor, parent: est. 0.10), 0.12 Abs 450nm.

B1: His-XRCC1^161–406 (domain or fragment, human, UniProt P18887 161-406, looked up)
chain: PSQKVTVTKLGQFRVKEEDESANSLRPGALFFSRINKTSPVTASDPAGPSYAAATLQASSAASSASPVSRAIGSTSKPQESPKGKRKLDLNQEEKKTPSKPPAQLSPSVPKRPKLPAPTRTPATAPVPARAQGAVTGKPRGEGTEPRRPRAGPEELGKILQGVVVVLSGFQNPFRSELRDKALELGAKYRPDWTRDSTHLICAFANTPKYSQVLGLGGRIVRKEWVLDCHRMRRRLPSQRYLMAGP
notes: Vector pTWO-E (from pET-17b) adds an N-terminal His6 tag that can be cleaved by rhinovirus 3C; also called wild-type histidine-tagged fragment of human XRCC1 spanning the conserved BRCT1 domain; source: E. coli Rosetta2 (DE3)pLysS, purified (Talon resin, heparin column); not shown: His6, N-terminal, kept
Turning to B1, in experiment [3], the binding result is reported as “binds”.

The values are drawn from paper PMC4538820, “The XRCC1 phosphate-binding pocket binds poly (ADP-ribose) and is required for XRCC1 function” (Nucleic Acids Research, 2015).
